# ± gives the standard deviation of the averaged measurements.
# Test system: ATP
# Test: switch fluorescence ratio, 500 uM ATP over buffer (Cy3 cluster intensity, sum of 5 cycles each) (fold (ratio)); higher = stronger signal-on switching upon ATP binding; sequences stand for … in TCGTCGGCAGCGTCAGATGTGTATAAGAGACAGTTTTTTTTTTTTTTTTTTTTTTTTT…TC
# Settings: aptamer strand: ATP DNA aptamer (quencher-CACCTGGGGGAGTATTGCGGAGGAAGG + anchor), 100 nM annealed; ATP concentration: 500 uM
# Outline: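 Clusters carrying Cy3-labelled switching strands on a modified Illumina MiSeq flow-cell were annealed to 100 nM quencher-labelled ATP aptamer and imaged in selection buffer. They were imaged again after 15 min with 500 uM ATP at 22 °C, over five buffer/ATP cycles with NaOH stripping and re-annealing in between. For each cluster, the fluorescence ratio is the summed Cy3 intensity of the target cycles divided by that of the buffer cycles, averaged per switch-domain sequence. Clusters outside 100-1000 RFU were left out.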
# 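Also: ATP exposure 15 min at 22 °C before imaging.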
row,Sequence,switch fluorescence ratio
1,TATTAAGCGA,1.05 ± 0.037
2,TCAGGCGTTT,0.996 ± 0.024
3,TCATTGGTAA,0.977 ± 0.047
4,TTATAAGCGA,1.02 ± 0.035
5,CGTAGGGGGC,1.03 ± 0.023
6,TTGAGGGCTT,0.998 ± 0.025
7,AGGAATTTTA,0.9554 ± 0.0062
8,GGGGGGTTTT,1.01 ± 0.059
9,ATGTTGGGGT,1 ± 0.029
10,TTTTTGGCTG,0.9818 ± 0.0049
11,CGGGAGGTAA,0.9863 ± 0.0038
12,GAATGTAGGG,0.967 ± 0.046
13,AAAGTACCCG,1.07 ± 0.04
14,GATCGTTGTC,0.988 ± 0.027
15,GATCAGTGTT,0.9783 ± 0.0093
16,AATTTAAATG,0.977 ± 0.03
17,GTTTTTCCCC,1.11 ± 0.14
18,GGTGCGCGGA,1.034 ± 0.0064
19,TTTATGGTAT,0.982 ± 0.028
20,GTATTAGTAA,1.006 ± 0.0038
21,AAAATGCTTT,1.01 ± 0.0014
22,TGGGATAGAG,1 ± 0.021
23,ATGTGTAGGG,0.9711 ± 0.0014
24,ATTAACCAGG,1.27 ± 0.065
25,CAGTAGTAGT,1.02 ± 0.0097

row,Sequence,switch fluorescence ratio
1,CATTTTGTGC,0.988 ± 0.052
2,TGGTTATTGT,0.974 ± 0.032
3,AGGAAAGTGT,1.01 ± 0.017
4,AGCAATGGGG,1.58 ± 0.051
5,TGGGGGGAAA,1.01 ± 0.054
6,ATCAATTGGT,1.013 ± 0.0052
7,GCAATTGATG,1.04 ± 0.017
8,AAAGATGCGG,1.01 ± 0.066
9,GAAGGGGAAT,1.003 ± 0.0052
10,GCGAGGGGCT,0.9717 ± 0.0031
11,GGGGTAGACA,1 ± 0.031
12,CTTGACGGTC,1.11 ± 0.1
13,GGGGTAAGGC,0.979 ± 0.019
14,TGGGGGCTTA,0.99 ± 0.059
15,GCATAGTCTG,1.038 ± 0.0042
16,GTCGGCGTAA,0.9982 ± 0.0045
17,TTTCGTGTTT,0.998 ± 0.028
18,AACCTTTTGG,1.03 ± 0.048
19,TGTTAATCAG,0.98605 ± 0.00081
20,GTTTTACATT,1.02 ± 0.021
21,AATGGGGGAC,1.001 ± 0.0025
22,CGTTGGGAGT,0.988 ± 0.037
23,GCTACGACGG,1.05 ± 0.012
24,CTGGAACAGT,0.976 ± 0.015
25,TTTTATAAAA,1.03 ± 0.019

row,Sequence,switch fluorescence ratio
1,AAAAGAAAGC,0.956 ± 0.03
2,AATATAGCGT,0.969 ± 0.021
3,TTAGCAGCGC,1.01 ± 0.055
4,TTGATTAATT,0.9925 ± 0.0099
5,CTCAAGACGG,1.06 ± 0.012
6,TAATTAATGC,1.02 ± 0.037
7,TGCCAGTGTT,1.22 ± 0.32
8,TTTGGATCGT,0.981 ± 0.025
9,TCACGTGGTA,1.02 ± 0.021
10,AGGCACGCGC,1.01 ± 0.013
11,AGCGGGAGGG,1.02 ± 0.015
12,AAGGGACTTG,0.995 ± 0.018
13,AGCTGGCTGT,0.9735 ± 0.0037
14,TGGTCGCCGT,0.978 ± 0.14
15,TCGGGGGCAC,1.45 ± 0.71
16,GTTTTCGTTT,0.9711 ± 0.0058
17,CTGGGTGTGC,1.01 ± 0.02
18,TTGAAATAAT,1.1 ± 0.14
19,TTAGTGGGTA,0.981 ± 0.082
20,TAACCGCTTT,1.55 ± 0.7
21,GCTGTGCGGG,0.95 ± 0.018
22,CAGTAGGCAA,2 ± 0.15
23,TGGTGGAGTC,1.02 ± 0.046
24,CGCCGTCTCA,1.02 ± 0.042
25,CGGGGGTCGA,0.989 ± 0.031

row,Sequence,switch fluorescence ratio
1,AAACTTTGTT,1.02 ± 0.039
2,GTTCGGCGGC,0.991 ± 0.016
3,TCTTGGGGCA,1.01 ± 0.019
4,AATGTACTTT,1.03 ± 0.032
5,ATGGGAGATG,0.983 ± 0.0045
6,TTATGGGCGG,1.02 ± 0.047
7,GAGGGTGTCA,0.995 ± 0.017
8,GTTGTGTTTT,1.01 ± 0.026
9,GATCGGGGGG,0.983 ± 0.041
10,ATTTGGTTTT,0.999 ± 0.04
11,GAAGAACGGG,1.006 ± 0.0036
12,GGTGCATGGG,1.01 ± 0.034
13,CTTGTTTCTC,0.971 ± 0.028
14,GGTGAGGCTA,1 ± 0.022
15,GTTTTAAAGT,1.02 ± 0.017
16,GTGTGTTGAT,0.989 ± 0.029
17,ACCTAATGTT,1.02 ± 0.016
18,GCACTAAACT,1.05 ± 0.057
19,AATAAAATT,1.03 ± 0.076
20,GACTGGTTGC,1 ± 0.053
21,TAAGCTATTT,1.02 ± 0.025
22,GCCCGGGCAT,0.986 ± 0.013
23,GGGGTAGCGT,0.99 ± 0.03
24,AAGGGCTAGA,1 ± 0.016
25,ATGGGGTAAT,1.01 ± 0.028
